T1: monkey FcRn (monkey, UniProt Q8SPV9)
T1 chain 1: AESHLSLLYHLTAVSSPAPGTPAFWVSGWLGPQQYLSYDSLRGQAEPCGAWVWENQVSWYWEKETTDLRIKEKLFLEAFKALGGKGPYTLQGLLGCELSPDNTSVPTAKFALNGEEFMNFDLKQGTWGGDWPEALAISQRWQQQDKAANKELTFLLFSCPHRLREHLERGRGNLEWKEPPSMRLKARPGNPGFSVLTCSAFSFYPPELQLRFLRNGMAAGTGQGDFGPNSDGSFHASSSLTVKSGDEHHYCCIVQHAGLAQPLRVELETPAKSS
T1 chain 2: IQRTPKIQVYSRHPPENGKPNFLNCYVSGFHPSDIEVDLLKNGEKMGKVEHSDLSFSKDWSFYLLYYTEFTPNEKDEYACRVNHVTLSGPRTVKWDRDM

T2: mouse FcRn (mouse, UniProt Q61559)
T2 chain 1: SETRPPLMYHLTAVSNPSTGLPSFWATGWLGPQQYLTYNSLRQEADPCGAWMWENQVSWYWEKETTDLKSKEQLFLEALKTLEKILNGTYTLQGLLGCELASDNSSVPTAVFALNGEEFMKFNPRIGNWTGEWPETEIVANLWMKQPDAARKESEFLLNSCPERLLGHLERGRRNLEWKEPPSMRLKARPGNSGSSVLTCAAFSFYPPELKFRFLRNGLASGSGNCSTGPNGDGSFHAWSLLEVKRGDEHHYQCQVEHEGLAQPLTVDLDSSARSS
T2 chain 2: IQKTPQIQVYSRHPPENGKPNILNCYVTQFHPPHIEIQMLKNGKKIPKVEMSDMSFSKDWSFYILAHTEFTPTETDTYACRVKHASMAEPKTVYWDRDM

B1: A3 H11A4.3 (mAb) (antibody)
chain 1: not shown
chain 2: MGWSCIILFLVATATGVHSQSALTQPASVSGSPGQSITISCTGTSSDVGGYNYVSWYQQHPGKAPKLMIYDVSKRPSGVSNRFSGSKSGNTASLTISGLQSEDEADYYCNSLTSISTWVFGGGTKLTVLGQPKANPTVTLFPPSSEELQANKATLVCLISDFYPGAVTVAWKADGSPVKAGVETTKPSKQSNNKYAASSYLSLTPEQWKSHRSYSCQVTHEGSTVEKTVAPTECS
B2: A3 H11A4.2 (mAb) (antibody)
chain 1: not shown
chain 2: B1 chain 2
B3: A3 H11A4.1 (mAb) (antibody)
chain 1: not shown
chain 2: B1 chain 2
B4: H11A4.3 (monomer) (protein)
chain: MGWSCIILFLVATATGVHSSDKTHTCPPCPAPEAAGGPSVFLFPPKPKDTLYITREPEVTCVVVDVSHEDPEVKFNWYVDGVEVHNAKTKPREEQYNSTYRVVSVLNPYHQDWLNGKEYKCKVSNKALGAPIEKTISKAKGQPREPQVYTLPPSREEMTKNQVSLTCLVKGFYPSDIAVEWESNGQPENNYKTTPPVLDSDGSFFLYSKLTVDKSRWQQGNVFSCSVMHEALRWHYTQKSLSLSPGK
B5: H11A4.2 (monomer) (protein)
chain: B4 chain with A34L, A35L, G129P, E156D, M158L
B6: H11A4.1 (Monomer) (protein)
chain: B4 chain with Y52M, T54S, E56T
B7: B14 H11A4.1 (mAb) (antibody)
chain 1: MGWSCIILFLVATATGVHSQVQLVESGGGLVKPGGSLRLSCAASGFTFSDYYMSWIRQAPGKGLEWVSYITYSGSTIYYADSVKGRFTISRDNAKSSLYLQMNSLRAEDTAVYYCARDRGTTMVPFDYWGQGTLVTVSSASTKGPSVFPLAPSSKSTSGGTAALGCLVKDYFPEPVTVSWNSGALTSGVHTFPAVLQSSGLYSLSSVVTVPSSSLGTQTYICNVNHKPSNTKVDKKVEPKSCDKTHTCPPCPAPEAAGGPSVFLFPPKPKDTLMISRTPEVTCVVVDVSHEDPEVKFNWYVDGVEVHNAKTKPREEQYNSTYRVVSVLNPYHQDWLNGKEYKCKVSNKALGAPIEKTISKAKGQPREPQVYTLPPSREEMTKNQVSLTCLVKGFYPSDIAVEWESNGQPENNYKTTPPVLDSDGSFFLYSKLTVDKSRWQQGNVFSCSVMHEALRWHYTQKSLSLSPGK
chain 2: not shown
B8: B14 H11A4.3 (mAb) (antibody)
chain 1: B7 chain 1 with M274Y, S276T, T278E
chain 2: not shown
B9: W11A4.1 (Dimer) (protein)
chain: MGWSCIILFLVATATGVHSSDKTHTCPPCPAPEAAGGPSVFLFPPKPKDTLMISRTPEVTCVVVDVSHEDPEVKFNWYVDGVEVHNAKTKPREEQYNSTYRVVSVLNPYHQDWLNGKEYKCKVSNKALGAPIEKTISKAKGQPREPQVYTLPPSRDELTKNQVSLTCLVKGFYPSDIAVEWESNGQPENNYKTTPPVLDSDGSFFLYSKLTVDKSRWQQGNVFSCSVMHEALRWHYTQKSLSLSPGKGGGSGGGSGGGSGGGSSGGGSSSDKTHTSPPSPAPEAAGGPSVFLFPPKPKDTLMISRTPEVTCVVVDVSHEDPEVKFNWYVDGVEVHNAKTKPREEQYNSTYRVVSVLNPYHQDWLNGKEYKCKVSNKALGAPIEKTISKAKGQPREPQVYTLPPSRDELTKNQVSLTCLVKGFYPSDIAVEWESNGQPENNYKTTPPVLDSDGSFFLYSKLTVDKSRWQQGNVFSCSVMHEALRWHYTQKSLSLSPGK
B10: B14 H11A4.2 (mAb) (antibody)
chain 1: B7 chain 1 with A256L, A257L, M274Y, S276T, T278E, G351P
chain 2: not shown

Changes are numbered by the printed parent chain.

In the first assay the target is T1, monkey FcRn. The assay is described as follows: SPR, pH 6.0, 25C.
B1 came in with a Kd of 3.76 nM.
For B2, the affinity, expressed as Kd, was 0.914 nM.
For B3, the affinity, expressed as Kd, was 3.13 nM.
On the same count and under the same terms, the same measure for B4: 1.38 nM; for B5: 0.592 nM; for B6: 0.928 nM.
Consider B7, for which the Kd worked out at 4.26 nM.
The same measure, in the same setting: the figure for B8 is 2.45 nM.

The target in a further assay is T3, human FcRn (human, UniProt P55899). The experiment in a line: SPR, pH 6.0, 25C.
The molecule B1 had a dissociation constant Kd of 0.803 nM.
Still for that read-out and setting: the figure for B2 is 1.04 nM; for B3 it is 2.6 nM; for B4 it is 0.288 nM.
Same read-out and setting: the same measure for B5: 0.292 nM.
On the same count and under the same terms, the figure for B6 is 0.7 nM; for B7 it is 3.3 nM; for B8 it is 1.23 nM.

For a further assay, the target named is T3, human FcRn. The experiment in a line: SPR, pH 6.0, 25C. The source holds these as a separate data set.
The molecule B9 came in with a dissociation constant Kd of 1.68 nM.
Same read-out and setting: the same measure for B1: 0.803 nM; for B2: 1.04 nM.
On the same count and under the same terms, the figure for B3 is 1.93 nM.
Still for that read-out and setting: the same measure for B4: 0.288 nM; for B5: 0.292 nM; for B6: 0.559 nM.
The molecule B7 came in with a dissociation constant (Kd) of 2.85 nM.
Still for that read-out and setting: the same measure for B10: 1.74 nM; for B8: 1.23 nM.

The target in a further assay is T3, human FcRn. The assay is described as follows: SPR, pH 7.4, 25C.
In the case of B1, the Kd is 18.8 nM.
The same measure, in the same setting: the same measure for B2: 11.2 nM; for B3: 29.6 nM.
The same measure, in the same setting: the same measure for B4: 7.62 nM; for B5: 3.51 nM.
The same measure, in the same setting: the figure for B6 is 15.2 nM; for B7 it is 34.1 nM.
For B8, binding was characterised by a dissociation constant (Kd) of 15.1 nM.

A further assay deals with T2, mouse FcRn. The experiment in a line: SPR, pH 6.0, 25C.
In turn, B1 displayed a Kd of 2.57 nM.
B2 had a Kd of 0.113 nM.
Still for that read-out and setting: the figure for B3 is 0.165 nM; for B4 it is 0.839 nM; for B5 it is 0.0556 nM.
B6 gave a Kd of 0.0918 nM.
Still for that read-out and setting: the figure for B7 is 0.189 nM; for B8 it is 0.782 nM.

(Values after patent US20260374875 (published 2026).)
